These results are taken from patent publication US20250263489A1 (TEIJIN PHARMA, published 2025).

Test [1] addresses T1, IGF-1 receptor on the cells of the PathHunter IGF1R Functional Assay (DiscoverX) (UniProt P08069 31-1367). The experiment in a line: cell-based or functional assay.
In test [2] the target is T1, IGF-1 receptor on the cells of the …. Put plainly: cell-based or functional assay. This is another data set of the same source.

T1 sequence (P08069 31-1367): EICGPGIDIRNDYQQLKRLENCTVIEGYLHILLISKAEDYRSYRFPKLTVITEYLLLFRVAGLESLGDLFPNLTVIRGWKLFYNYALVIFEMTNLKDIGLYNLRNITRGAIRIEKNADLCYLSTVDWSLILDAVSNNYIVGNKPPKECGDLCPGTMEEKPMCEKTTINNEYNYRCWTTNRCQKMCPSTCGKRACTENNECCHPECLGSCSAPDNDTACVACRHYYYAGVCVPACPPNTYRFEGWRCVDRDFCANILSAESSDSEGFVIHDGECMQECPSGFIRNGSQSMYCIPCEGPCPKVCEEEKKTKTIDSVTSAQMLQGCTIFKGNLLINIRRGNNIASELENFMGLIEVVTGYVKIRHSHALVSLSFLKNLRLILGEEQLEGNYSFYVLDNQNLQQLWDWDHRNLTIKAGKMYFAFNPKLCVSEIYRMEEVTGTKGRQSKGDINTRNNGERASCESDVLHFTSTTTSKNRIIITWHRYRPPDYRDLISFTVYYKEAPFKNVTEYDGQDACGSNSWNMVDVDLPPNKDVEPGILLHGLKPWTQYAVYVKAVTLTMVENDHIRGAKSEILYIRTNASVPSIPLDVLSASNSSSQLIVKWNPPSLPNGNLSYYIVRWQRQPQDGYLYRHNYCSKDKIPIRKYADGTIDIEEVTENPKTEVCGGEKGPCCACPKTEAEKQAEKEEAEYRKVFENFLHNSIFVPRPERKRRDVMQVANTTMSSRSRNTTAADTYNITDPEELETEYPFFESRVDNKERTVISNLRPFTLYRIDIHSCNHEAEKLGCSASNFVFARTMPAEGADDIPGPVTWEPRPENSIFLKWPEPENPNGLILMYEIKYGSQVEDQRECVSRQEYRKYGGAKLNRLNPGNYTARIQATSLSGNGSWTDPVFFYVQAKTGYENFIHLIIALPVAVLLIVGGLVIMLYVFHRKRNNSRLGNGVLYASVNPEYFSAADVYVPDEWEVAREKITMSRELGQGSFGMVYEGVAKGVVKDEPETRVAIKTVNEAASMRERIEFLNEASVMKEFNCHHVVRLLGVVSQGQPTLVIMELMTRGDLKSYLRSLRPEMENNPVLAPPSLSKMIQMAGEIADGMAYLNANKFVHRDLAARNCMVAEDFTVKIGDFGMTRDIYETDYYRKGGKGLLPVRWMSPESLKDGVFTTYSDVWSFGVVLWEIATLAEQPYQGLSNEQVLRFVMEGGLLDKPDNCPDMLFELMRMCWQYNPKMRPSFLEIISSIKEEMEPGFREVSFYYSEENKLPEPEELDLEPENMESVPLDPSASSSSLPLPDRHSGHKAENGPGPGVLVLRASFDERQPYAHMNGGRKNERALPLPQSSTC

B1: FW1_var9 antibody (antibody, V domains shown)
VH: QVQLVQSGAEVKKPGASVKVSCKASGYTFTSYWMHWVRQAPGQGLEWMGETNPSNSVTNYAQKFQGRVTLTVDTSTSTAYMELSSLRSEDTAVYYCTIGRGRGFAYWGQGTLVTVSS
VL: DIQMTQSPSSVSASVGDRVTITCRASQNINFWLSWYQQKPGKAPKLLIYKASNLHTGVPSRFSGSGSGTDFTLTISSLQPEDFATYYCLQGQSYPYTFGGGTKLEIK
For the molecule B1, in test [1], the “Activation intensity (RLU), PathHunter” value came to 1450 RLU; the “Fluorescence intensity (0.1 nM) (RLU), PathHunter” value (from here on “Fluorescence intensity (0.1 nM)”) was determined as 591 RLU; the “Fluorescence intensity (12.5 nM) (RLU), PathHunter” value (“Fluorescence intensity (12.5 nM)” for short) was 2040 RLU; the “Ratio of activation intensity, PathHunter” value (from here on “Ratio”) was 0.67 relative to IGF11-16.

B2: IGF11-16 with alanine substitution of W at position 33 (CDR-H1) (antibody, mouse IgG1, V domains shown)
VH: QIQLQQPGAELVKPGASVKLSCKAPGYTFTSYAMHWVKQRPGQGLEWIGETNPSNSVTNYNEKFKSKATLTVDKSSSTAYMQLSSLTSEDSAVYYCTIGRGRGFAYWGQGTLVTVSA
VL: DIQMNQSPSSLSASLGDTITITCRASQNINFWLSWCQQKPGNIPKLLIYKASNLHTGVPSRFSGSGSGTDFTLTISSLQPEDIATYYCLQGQSYPYTFGGGTKLEIK
For the molecule B2, in test [2], the “Signal activation EC50 vs IGF11-16, PathHunter” value was found to be 0.5 ratio vs IGF11-16 and the “Signal activation Emax vs IGF11-16, PathHunter” value worked out at 0 ratio vs IGF11-16.

B3: IGF11-16 with alanine substitution of N at position 59 (CDR-H2) (antibody, mouse IgG1, V domains shown)
VH: QIQLQQPGAELVKPGASVKLSCKAPGYTFTSYWMHWVKQRPGQGLEWIGETNPSNSVTAYNEKFKSKATLTVDKSSSTAYMQLSSLTSEDSAVYYCTIGRGRGFAYWGQGTLVTVSA
VL: DIQMNQSPSSLSASLGDTITITCRASQNINFWLSWCQQKPGNIPKLLIYKASNLHTGVPSRFSGSGSGTDFTLTISSLQPEDIATYYCLQGQSYPYTFGGGTKLEIK
Regarding B3, in test [2], the “Signal activation EC50 vs IGF11-16, PathHunter” value turned out to be 2.3 ratio vs IGF11-16 and the “Signal activation Emax vs IGF11-16, PathHunter” value came to 0.9 ratio vs IGF11-16.

B4: IGF11-16 with alanine substitution of S at position 54 (CDR-H2) (antibody, mouse IgG1, V domains shown)
VH: QIQLQQPGAELVKPGASVKLSCKAPGYTFTSYWMHWVKQRPGQGLEWIGETNPANSVTNYNEKFKSKATLTVDKSSSTAYMQLSSLTSEDSAVYYCTIGRGRGFAYWGQGTLVTVSA
VL: DIQMNQSPSSLSASLGDTITITCRASQNINFWLSWCQQKPGNIPKLLIYKASNLHTGVPSRFSGSGSGTDFTLTISSLQPEDIATYYCLQGQSYPYTFGGGTKLEIK
Regarding B4, in test [2], the “Signal activation EC50 vs IGF11-16, PathHunter” value was determined as 2.5 ratio vs IGF11-16 and the “Signal activation Emax vs IGF11-16, PathHunter” value stood at 1 ratio vs IGF11-16.

B5: IGF11-16 with alanine substitution of R at position 102 (CDR-H3) (antibody, mouse IgG1, V domains shown)
VH: QIQLQQPGAELVKPGASVKLSCKAPGYTFTSYWMHWVKQRPGQGLEWIGETNPSNSVTNYNEKFKSKATLTVDKSSSTAYMQLSSLTSEDSAVYYCTIGRGAGFAYWGQGTLVTVSA
VL: DIQMNQSPSSLSASLGDTITITCRASQNINFWLSWCQQKPGNIPKLLIYKASNLHTGVPSRFSGSGSGTDFTLTISSLQPEDIATYYCLQGQSYPYTFGGGTKLEIK
For B5, in test [2], the “Signal activation EC50 vs IGF11-16, PathHunter” value was 54.4 ratio vs IGF11-16 and the “Signal activation Emax vs IGF11-16, PathHunter” value is 4.8 ratio vs IGF11-16.

B6: FW1_var14 antibody (antibody, V domains shown)
VH: QVQLVQSGAEVKKPGASVKVSCKASGYTFTSYWMHWVRQAPGQGLEWMGETNPSNSVTNYAQKFQGRVTLTVDTSTSTAYMELSSLRSEDTATYYCTIGRGRGFAYWGQGTLVTVSS
VL: DIQMTQSPSSVSASVGDRVTITCRASQNINFWLSWYQQKPGKAPRLLIYKASNLHTGVPSRFSGSGSGTDFTLTISSLQPEDFATYYCLQGQSYPYTFGGGTKLEIK
Turning to B6, in test [1], the “Activation intensity (RLU), PathHunter” value stood at 1340 RLU; the “Fluorescence intensity (0.1 nM)” value was found to be 558 RLU; the “Fluorescence intensity (12.5 nM)” value was 1900 RLU; the “Ratio” value is 0.62 relative to IGF11-16.

B7: IGF11-16 with alanine substitution of N at position 52 (CDR-H2) (antibody, mouse IgG1, V domains shown)
VH: QIQLQQPGAELVKPGASVKLSCKAPGYTFTSYWMHWVKQRPGQGLEWIGETAPSNSVTNYNEKFKSKATLTVDKSSSTAYMQLSSLTSEDSAVYYCTIGRGRGFAYWGQGTLVTVSA
VL: DIQMNQSPSSLSASLGDTITITCRASQNINFWLSWCQQKPGNIPKLLIYKASNLHTGVPSRFSGSGSGTDFTLTISSLQPEDIATYYCLQGQSYPYTFGGGTKLEIK
B7: in test [2], the “Signal activation EC50 vs IGF11-16, PathHunter” value was determined as 2.7 ratio vs IGF11-16 and the “Signal activation Emax vs IGF11-16, PathHunter” value worked out at 0 ratio vs IGF11-16.

B8: IGF11-16 with alanine substitution of F at position 64 (CDR-H2) (antibody, mouse IgG1, V domains shown)
VH: QIQLQQPGAELVKPGASVKLSCKAPGYTFTSYWMHWVKQRPGQGLEWIGETNPSNSVTNYNEKAKSKATLTVDKSSSTAYMQLSSLTSEDSAVYYCTIGRGRGFAYWGQGTLVTVSA
VL: DIQMNQSPSSLSASLGDTITITCRASQNINFWLSWCQQKPGNIPKLLIYKASNLHTGVPSRFSGSGSGTDFTLTISSLQPEDIATYYCLQGQSYPYTFGGGTKLEIK
With B8, in test [2], the “Signal activation EC50 vs IGF11-16, PathHunter” value worked out at 2.4 ratio vs IGF11-16 and the “Signal activation Emax vs IGF11-16, PathHunter” value worked out at 0.9 ratio vs IGF11-16.

B9: IGF11-16 with alanine substitution of H at position 35 (CDR-H1) (antibody, mouse IgG1, V domains shown)
VH: QIQLQQPGAELVKPGASVKLSCKAPGYTFTSYWMAWVKQRPGQGLEWIGETNPSNSVTNYNEKFKSKATLTVDKSSSTAYMQLSSLTSEDSAVYYCTIGRGRGFAYWGQGTLVTVSA
VL: DIQMNQSPSSLSASLGDTITITCRASQNINFWLSWCQQKPGNIPKLLIYKASNLHTGVPSRFSGSGSGTDFTLTISSLQPEDIATYYCLQGQSYPYTFGGGTKLEIK
Consider B9, for which, in test [2], the “Signal activation EC50 vs IGF11-16, PathHunter” value is 2.2 ratio vs IGF11-16 and the “Signal activation Emax vs IGF11-16, PathHunter” value came to 1 ratio vs IGF11-16.

B10: IGF11-16 with alanine substitution of N at position 55 (CDR-H2) (antibody, mouse IgG1, V domains shown)
VH: QIQLQQPGAELVKPGASVKLSCKAPGYTFTSYWMHWVKQRPGQGLEWIGETNPSASVTNYNEKFKSKATLTVDKSSSTAYMQLSSLTSEDSAVYYCTIGRGRGFAYWGQGTLVTVSA
VL: DIQMNQSPSSLSASLGDTITITCRASQNINFWLSWCQQKPGNIPKLLIYKASNLHTGVPSRFSGSGSGTDFTLTISSLQPEDIATYYCLQGQSYPYTFGGGTKLEIK
With B10, in test [2], the “Signal activation EC50 vs IGF11-16, PathHunter” value stood at 3 ratio vs IGF11-16 and the “Signal activation Emax vs IGF11-16, PathHunter” value came out at 1 ratio vs IGF11-16.

B11: FW2_var2 antibody (antibody, V domains shown)
VH: QVQLVQSGAEVKKPGSSVKVSCKASGYTFTSYWMHWVRQAPGQGLEWMGETNPSNSVTNYAQKFQGRVTLTVDKSTSTAYMELSSLRSEDTAVYYCTIGRGRGFAYWGQGTLVTVSS
VL: DIQMTQSPSSLSASVGDRVTITCRASQNINFWLSWYQQKPGKIPKLLIYKASNLHTGVPSRFSGSGSGTDFTLTISSLQPEDVATYYCLQGQSYPYTFGGGTKLEIK
Consider B11, for which, in test [1], the “Activation intensity (RLU), PathHunter” value is 1320 RLU; the “Fluorescence intensity (0.1 nM)” value was 572 RLU; the “Fluorescence intensity (12.5 nM)” value amounted to 1890 RLU; the “Ratio” value is 0.61 relative to IGF11-16.

B12: FW1_var10 antibody (antibody, V domains shown)
VH: QVQLVQSGAEVKKPGASVKVSCKASGYTFTSYWMHWVRQAPGQGLEWMGETNPSNSVTNYAQKFQGRVTLTVDTSTSTAYMELSSLRSEDTATYYCTIGRGRGFAYWGQGTLVTVSS
VL: DIQMTQSPSSVSASVGDRVTITCRASQNINFWLSWYQQKPGKAPKLLIYKASNLHTGVPSRFSGSGSGTDFTLTISSLQPEDFATYYCLQGQSYPYTFGGGTKLEIK
B12: in test [1], the “Activation intensity (RLU), PathHunter” value was 1350 RLU; the “Fluorescence intensity (0.1 nM)” value amounted to 516 RLU; the “Fluorescence intensity (12.5 nM)” value stood at 1860 RLU; the “Ratio” value was 0.62 relative to IGF11-16.

B13: IGF11-16 with alanine substitution of S at position 56 (CDR-H2) (antibody, mouse IgG1, V domains shown)
VH: QIQLQQPGAELVKPGASVKLSCKAPGYTFTSYWMHWVKQRPGQGLEWIGETNPSNAVTNYNEKFKSKATLTVDKSSSTAYMQLSSLTSEDSAVYYCTIGRGRGFAYWGQGTLVTVSA
VL: DIQMNQSPSSLSASLGDTITITCRASQNINFWLSWCQQKPGNIPKLLIYKASNLHTGVPSRFSGSGSGTDFTLTISSLQPEDIATYYCLQGQSYPYTFGGGTKLEIK
Consider B13, for which, in test [2], the “Signal activation EC50 vs IGF11-16, PathHunter” value was 2.9 ratio vs IGF11-16 and the “Signal activation Emax vs IGF11-16, PathHunter” value came out at 1.1 ratio vs IGF11-16.
